Measured values reported in paper PMC10157173.
pEC50: −log10 of the molar value.

How the values were obtained:
[1] = biological target: Tag-free recombinant human EGFR (Homo sapiens (Human).) (UniProt P00533); experiment: ELISA; sandwich ELISA for bispecificity: tag-free EGFR, HER2 or HER3 coated at 1000 ng/ml in PBS; dilutions of BiXAb™ in PBS, 37°C, 1 h; then 1000 ng/ml of the His-tagged second receptor, 37°C, 1 h; detected with peroxidase-conjugated anti-His tag antibody
[2] = biological target: Tag-free recombinant human HER3 ECD (Homo sapiens (Human).) (UniProt P21860); experiment: as above

Work on “BiXAb™ 3Patri-1Matu-Fc (bispecific antibody)” yielded a pEC50 [1] of 6.77 and a pEC50 [2] of 9.26.
